The record followed here is patent publication US20140199315A1 (Biogen, published 2014).

For experiment [1], the target named is human Sp35 protein expressed on transfected cells (human) (UniProt Q96FE5). Briefly: FACS on live human LINGO-1 (Sp35) transfected 293 cells, PE-labelled secondary antibody alone (no primary antibody), FL2-H.
The target in experiment [2] is T1, Sp35 fragment amino acids 34-532 of SEQ ID NO:2 fused to hinge and Fc of IgG1 (human, UniProt Q96FE5 40-538).
T1 construct: the mature proteins should be the same; not shown: hinge and Fc regions of IgG1
T1 sequence: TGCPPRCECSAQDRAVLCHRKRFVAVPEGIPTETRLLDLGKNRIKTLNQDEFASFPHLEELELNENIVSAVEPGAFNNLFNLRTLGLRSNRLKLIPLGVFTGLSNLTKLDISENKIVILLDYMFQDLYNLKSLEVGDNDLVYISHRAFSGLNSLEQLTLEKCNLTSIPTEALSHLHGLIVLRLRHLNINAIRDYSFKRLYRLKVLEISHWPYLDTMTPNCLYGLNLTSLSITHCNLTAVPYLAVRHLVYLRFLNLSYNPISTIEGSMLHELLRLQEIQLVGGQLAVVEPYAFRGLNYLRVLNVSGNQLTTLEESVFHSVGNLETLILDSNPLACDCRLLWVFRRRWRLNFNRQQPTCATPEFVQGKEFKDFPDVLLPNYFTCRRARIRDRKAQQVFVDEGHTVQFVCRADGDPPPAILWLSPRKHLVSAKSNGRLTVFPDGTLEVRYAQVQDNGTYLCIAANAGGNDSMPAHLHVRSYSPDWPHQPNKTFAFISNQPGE
As to the kind of experiment: ELISA.

In experiment [3] the target is T2, Sp35-Fc fusion protein (human Sp35 residues 1-532 fused to hinge and Fc of human IgG1) (human, UniProt Q96FE5 40-538).
T2 construct: also called LINGO-1-Fc; not shown: hinge and Fc region of human IgG1
T2 sequence: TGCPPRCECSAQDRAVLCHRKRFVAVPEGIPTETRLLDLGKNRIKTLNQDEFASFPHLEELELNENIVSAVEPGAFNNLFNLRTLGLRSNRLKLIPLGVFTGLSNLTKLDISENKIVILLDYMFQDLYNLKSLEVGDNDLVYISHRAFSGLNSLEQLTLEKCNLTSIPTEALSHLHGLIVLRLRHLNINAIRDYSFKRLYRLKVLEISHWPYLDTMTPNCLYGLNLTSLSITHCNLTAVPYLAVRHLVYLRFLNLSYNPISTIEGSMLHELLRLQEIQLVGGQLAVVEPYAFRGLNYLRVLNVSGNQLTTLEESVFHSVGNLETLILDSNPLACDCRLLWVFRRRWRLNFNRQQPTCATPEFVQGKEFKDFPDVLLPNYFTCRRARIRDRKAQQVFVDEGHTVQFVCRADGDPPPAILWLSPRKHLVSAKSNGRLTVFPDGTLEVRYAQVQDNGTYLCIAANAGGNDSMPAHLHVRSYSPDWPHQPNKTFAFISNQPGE
Briefly: ELISA. A general note: An ELISA detects its analyte on a solid surface through an enzyme-linked reagent.

Experiment [4] addresses T3, full-length human Sp35 with N-terminal hemagglutinin (HA) tag, from lysate of transfected COS-1 cells (human, UniProt Q96FE5 40-620).
T3 construct: also called huSp35 (immunoprecipitation); not shown: HA tag at the N-terminus
T3 sequence: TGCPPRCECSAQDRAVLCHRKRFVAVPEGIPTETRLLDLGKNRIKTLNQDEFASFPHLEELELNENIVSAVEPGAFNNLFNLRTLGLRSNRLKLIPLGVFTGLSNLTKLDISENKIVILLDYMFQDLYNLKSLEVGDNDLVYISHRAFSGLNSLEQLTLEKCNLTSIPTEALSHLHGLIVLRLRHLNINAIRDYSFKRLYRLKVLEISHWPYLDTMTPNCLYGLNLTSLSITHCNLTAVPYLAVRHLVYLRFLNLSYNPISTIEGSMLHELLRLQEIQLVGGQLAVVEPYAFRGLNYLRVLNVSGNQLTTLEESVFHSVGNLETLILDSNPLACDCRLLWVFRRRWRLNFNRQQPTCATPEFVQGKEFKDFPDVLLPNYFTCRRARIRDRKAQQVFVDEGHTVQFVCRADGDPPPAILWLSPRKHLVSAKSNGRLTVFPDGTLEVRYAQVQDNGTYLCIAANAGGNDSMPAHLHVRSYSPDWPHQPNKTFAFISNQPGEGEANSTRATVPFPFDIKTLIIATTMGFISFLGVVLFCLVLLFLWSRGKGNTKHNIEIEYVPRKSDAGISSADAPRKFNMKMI
Briefly: immunoprecipitation. The method, then: (§1) To perform the immunoprecipitation, COS-1 cells expressing Sp35, fused to a hemaglutinin (HA) tag on the N-terminus, were produced by transiently transfecting COS-1 cells with a DNA construct which expresses the full-length Sp35 protein with an HA tag. Cells were harvested 48 hr after transfection and were lysed in 1 ml lysis buffer (50 mM HEPES, pH 7.5, 150 mM NaCl, 1.5 mM MgCl₂, 1 mM EGTA, 1% Triton X-100 and 10% glycerol) for 30 min at 4° C. After centrifugation at 14,000×g for 15 min, the supernatants were incubated with ProteinA/G-Sepharose beads (Santa Cruz) at 4° C. for 1 hr, and then incubated at 4° C. for 1 hr with either the 1A7 or the 2F3 anti-Sp35 murine monoclonal antibodies. The beads were washed 3 times with lysis buffer, boiled in Laemmli sample buffer, subjected to 4-20% SDS-PAGE, and analyzed by Western blotting using an antibody which recognizes the HA tag. As shown on the SDS-PAGE gel, monoclonal antibodies 1A7 and 2F3, immunoprecipitated human and murine Sp35 (FIG. 1). […] Similarly, monoclonal antibodies 1G7, 2B10, 2F3, 3P4C2.2D2, 3P4C8.2G9, Li01, Li03, Li05, Li06, Li07, Li08, Li11 and Li12 immunoprecipitate human or mouse or human and mouse Sp35 (See Table 3B). Additionally, Li08 immunoprecipitates AP-Sp35 and monoclonal antibodies 1B6.4 and 3E3.1 immunoprecipitate endogenous Sp35 (See Table 3B).

For experiment [5], the target named is T4, Sp35 polypeptide consisting of amino acids 34-534 of human Sp35 (human, UniProt Q96FE5 40-540).
T4 construct: No fusion partner stated
T4 sequence: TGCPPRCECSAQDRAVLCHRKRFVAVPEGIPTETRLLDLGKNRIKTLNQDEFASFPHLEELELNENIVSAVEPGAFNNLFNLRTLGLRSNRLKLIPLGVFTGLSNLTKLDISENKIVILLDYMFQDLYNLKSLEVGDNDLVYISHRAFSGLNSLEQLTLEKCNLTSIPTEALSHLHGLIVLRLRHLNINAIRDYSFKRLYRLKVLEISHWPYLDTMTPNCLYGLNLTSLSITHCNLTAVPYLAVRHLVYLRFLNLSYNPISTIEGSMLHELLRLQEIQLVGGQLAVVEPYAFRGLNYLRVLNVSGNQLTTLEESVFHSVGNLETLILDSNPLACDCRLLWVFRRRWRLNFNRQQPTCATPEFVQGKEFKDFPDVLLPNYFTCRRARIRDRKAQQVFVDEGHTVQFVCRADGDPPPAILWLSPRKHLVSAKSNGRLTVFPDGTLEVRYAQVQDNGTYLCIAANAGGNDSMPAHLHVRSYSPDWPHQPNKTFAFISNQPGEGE
As to the kind of experiment: similar experiments (ELISA).

In experiment [6] the target is T5, mouse Sp35 protein expressed on transfected cells (mouse, UniProt Q9D1T0 36-614).
T5 construct: whole, on cells; also called mSp35
T5 sequence (looked up): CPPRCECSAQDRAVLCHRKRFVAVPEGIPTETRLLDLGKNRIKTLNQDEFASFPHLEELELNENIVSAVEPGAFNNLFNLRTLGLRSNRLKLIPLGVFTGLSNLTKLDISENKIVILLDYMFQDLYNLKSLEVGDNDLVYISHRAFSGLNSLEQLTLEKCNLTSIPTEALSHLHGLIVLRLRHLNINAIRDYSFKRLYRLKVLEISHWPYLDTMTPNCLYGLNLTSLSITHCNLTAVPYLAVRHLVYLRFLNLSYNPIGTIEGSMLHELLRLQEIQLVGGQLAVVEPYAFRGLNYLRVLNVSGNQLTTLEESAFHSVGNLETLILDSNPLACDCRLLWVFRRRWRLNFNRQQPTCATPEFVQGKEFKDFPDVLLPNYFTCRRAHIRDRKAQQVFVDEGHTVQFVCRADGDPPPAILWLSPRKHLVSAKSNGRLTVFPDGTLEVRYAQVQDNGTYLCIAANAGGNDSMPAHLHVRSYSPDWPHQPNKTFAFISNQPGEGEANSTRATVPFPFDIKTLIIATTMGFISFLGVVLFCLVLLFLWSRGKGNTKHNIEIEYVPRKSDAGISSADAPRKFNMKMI
Briefly: FACS. An excerpt: To further characterize the binding properties of hybridoma-derived anti-Sp35 mAbs 1A7 and 2F3 produced as described in Example 3, binding to both fixed and live COS-7 or 293 cells expressing mouse or human Sp35 was compared.
(In flow cytometry, cells or beads pass a laser one at a time.)

Experiment [7] concerns the target T6, full-length murine Sp35 with HA tag, from lysate of transfected cells (mouse, UniProt Q9D1T0 34-614, limits assumed).
T6 construct: also called mSp35 (immunoprecipitation); not shown: HA tag
T6 sequence (looked up): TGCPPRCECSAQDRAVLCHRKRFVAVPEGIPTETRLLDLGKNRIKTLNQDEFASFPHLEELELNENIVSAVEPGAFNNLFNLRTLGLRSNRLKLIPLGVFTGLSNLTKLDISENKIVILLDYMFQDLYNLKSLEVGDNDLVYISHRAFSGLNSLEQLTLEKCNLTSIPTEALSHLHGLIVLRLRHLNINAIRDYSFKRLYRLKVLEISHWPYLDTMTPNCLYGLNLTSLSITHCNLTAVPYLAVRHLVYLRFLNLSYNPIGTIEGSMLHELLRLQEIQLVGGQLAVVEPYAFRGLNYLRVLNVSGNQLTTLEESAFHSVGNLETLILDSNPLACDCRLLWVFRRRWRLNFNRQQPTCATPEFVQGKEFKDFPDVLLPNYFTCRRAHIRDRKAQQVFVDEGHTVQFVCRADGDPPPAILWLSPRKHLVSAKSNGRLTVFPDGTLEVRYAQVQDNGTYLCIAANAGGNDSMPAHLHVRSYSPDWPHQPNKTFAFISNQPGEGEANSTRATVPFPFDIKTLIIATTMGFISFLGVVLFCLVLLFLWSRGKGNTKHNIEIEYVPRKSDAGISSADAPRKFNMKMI
Briefly: immunoprecipitation. On the procedure:
as §1

The target in experiment [8] is T7, mouse Sp35 protein (form in the assay not stated) (mouse, UniProt Q9D1T0 36-532, limits assumed).
T7 construct: also called mSp35; murine Sp35
T7 sequence (looked up): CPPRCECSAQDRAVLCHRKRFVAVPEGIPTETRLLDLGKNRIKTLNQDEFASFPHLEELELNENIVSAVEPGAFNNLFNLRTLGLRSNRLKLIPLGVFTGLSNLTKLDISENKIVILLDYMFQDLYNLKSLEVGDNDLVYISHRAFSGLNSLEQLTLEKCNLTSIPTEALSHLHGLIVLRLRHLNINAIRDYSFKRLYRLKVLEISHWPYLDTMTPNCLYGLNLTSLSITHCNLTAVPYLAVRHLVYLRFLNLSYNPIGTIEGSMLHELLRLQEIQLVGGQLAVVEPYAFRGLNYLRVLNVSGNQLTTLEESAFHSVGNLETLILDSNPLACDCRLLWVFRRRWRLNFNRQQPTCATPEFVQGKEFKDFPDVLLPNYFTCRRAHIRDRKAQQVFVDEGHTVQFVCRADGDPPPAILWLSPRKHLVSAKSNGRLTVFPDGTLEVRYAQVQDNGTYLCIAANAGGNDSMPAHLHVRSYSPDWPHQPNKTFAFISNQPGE
Briefly: method not stated (Example 5); KD determination (Example 5, method not stated), murine Sp35.

For 2nd Ab only (antibody), in experiment [1], the (FL2-H) Geom. Mean is 6.6, the (FL2-H) Mean turned out to be 8.78, the (FL2-H) Median amounted to 6.76 and the fraction of cells in the marker gate (FL2-H histogram) worked out at 5.52.

B1: 3P1D10.2C3 (antibody, V domains shown)
VH: QVQLQQSGAELARPGASVKLSCRASGYTFTSSWTQWVKQRPGQGLEWIGAIYPGDGDTRYTQKFKGKATLTADKSSSTAYMQLSSLASEDSAVYYCARHNSYGMDYWGQGTSVTVSS
VL: DIVMTQSPSSLTVTAGEKVTMSCKSSQSLLNSGNQKNYLTWYQQKPGQPPKLLIYWASTRESGVPDRFTGSGSGTDFTLTINSVQAEDLAVYYCQNDYSYPLFTFGSGTKLEIR
notes: murine hybridoma monoclonal antibody
On to B1, for which the binding result in experiment [2], in experiment [3], in experiment [4] and in experiment [5] was “binds” in each case.

B2: 3P1E11.3B7 (antibody, V domains shown)
VH: QVQLQQSGAELARPGASVKLSCRASGYTFTSSWTQWVKQRPGQGLEWIGAIYPGDGDTRYTQKFKGKATLTADKSSSTAYMQLSSLASEDSAVYYCARHNSYGMDYWGQGTSVTVSS
VL: DIVMTQSPSSLTVTAGEKVTMSCKSSQSLLNSGNQKSYLTWYQQKPGQPPKLLIYWASTRESGVPDRFTGSGSGTDFTLTINSVQAEDLAVYYCQNDYSYPLFTFGSGTKLEIR
For B2, the binding result in experiment [2], in experiment [3], in experiment [4] and in experiment [5] was “binds” each time.

B3: 2F3 (antibody, V domains shown)
VH: EVKLEESGGGLVQPGGSMKLSCAASGFTFSDAWLDWVRQSPEKGLEWVAEIRSKANNHATNYAESVKGRFTISRDDSKSSVYLQMNSLRAEDTGIYFCTPSFAYWGQGTTVTVSS
VL: DIQMTQSPASLSASVGETVTITCRASGNIYNYLAWFQQKQGKSPQLLVYNAKTLPDGVPSRFSGSGSGTQYFLKINSLQPEDFGSYYCQHFWAIPYTFGGGTKLEIKR
notes: murine hybridoma monoclonal antibody; also called monoclonal antibody 2F3; MAb 2F3
Turning to B3, the binding result in experiment [6] and in experiment [7] was “binds” in each case.

B4: 1A7 (antibody, V domains shown)
VH: QVQLVQSGPELKKPGETVKISCKASGYTFTNYGMNWVKQAPGKGLKWMGWINTDTGEPTYTEDFQGRFAFSLETSASTVYLQFNNLKNEDTATYFCAREGVHFDYWGQGTTVTVSS
VL: QIVLTQSPAIMSASPGEKVTMTCSASSSVSYMHWYQQKSGTSPKRWIYDTSKLASGVPARFSGSGSGTSYSLTISSMEAEDAATYYCQQWSSNPFTFGSGTKLEIK
notes: murine hybridoma monoclonal antibody; also called monoclonal antibody 1A7; MAb 1A7
In general, Kd refers to a measure of binding affinity in units of concentration. High values mean a looser complex, low ones a tighter complex. Molecule B4 came in with an equilibrium dissociation constant (Kd) in experiment [8] of 20 µM.
